From publication PMC10015519

Legend:
[1] = target: PF-D-Trimer (pre-fusion trimerized SARS-CoV-2 Delta spike protein ectodomain fused to the Trimer Domain) (SARS-CoV-2) (UniProt P0DTC2); test: reducing and non-reducing SDS-PAGE
[2] = target: PF-D-Trimer (pre-fusion trimerized SARS-CoV-2 Delta spike protein ectodomain fused to the Trimer Domain) (SARS-CoV-2) (UniProt P0DTC2); test: SEC-MALS
[3] = target: PF-W-Trimer (pre-fusion trimerized SARS-CoV-2 WA1 spike protein ectodomain fused to the Trimer Domain) (SARS-CoV-2) (UniProt P0DTC2); test: reducing and non-reducing SDS-PAGE
[4] = target: PF-W-Trimer (pre-fusion trimerized SARS-CoV-2 WA1 spike protein ectodomain fused to the Trimer Domain) (SARS-CoV-2) (UniProt P0DTC2); test: SEC-MALS

Substance	stoichiometry N [1]	stoichiometry N [2]	stoichiometry N [3]	stoichiometry N [4]
PF-D-Trimer (pre-fusion trimerized SARS-CoV-2 Delta spike protein ectodomain fused to the Trimer Domain) (from UniProt P0DTC2 14-1213)	3	3	–	–
PF-W-Trimer (pre-fusion trimerized SARS-CoV-2 WA1 spike protein ectodomain fused to the Trimer Domain) (from UniProt P0DTC2 14-1213)	–	–	3	3
